# Molecular target: HLA-A2.1 heavy chain with I125-labeled beta2-microglobulin (heterotrimer complex assay) (human)
# Experiment: dissociation of I125-labeled beta2-microglobulin from heavy chain/peptide/beta2m complex, HPLC gel filtration
substance,measurement,value
HTLV-1 Tax peptide (aa 11-19) (from UniProt P03409 11-19) (peptide; other documents disagree on this pair),T1/2 (binding half-life),5.56 days

# From patent US20060045881A1, “Anti-cancer vaccines” (Board of Regents, The University of Texas System, priority 2004, published 2006)
